Results on 18 molecules are retold here after patent US20260365739 (published 2026).

First the molecules themselves.
B1: IGF1R5_4_25 (antibody, V domains shown)
VH: QVKCEESGGGLVQAGGSLRLSCACSGRTIDNYAMAWSRQAPGKDREFVATIDWGDGGARYANSVKGRFTISRDNAKGTMYLQMNNLEPEDTAVYSCAMARQSRVNLDVARYDYWGQGTQVTVSS
B2: IGF1R5 (antibody, V domains shown)
VH: QVKLEESGGGLVQAGGSLRLSCAASGRTIDNYAMAWSRQAPGKDREFVATIDWGDGGARYANSVKGRFTISRDNAKGTMYLQMNNLEPEDTAVYSCAMARQSRVNLDVARYDYWGQGTQVTVSS
B3: IGF1R5_22_88 (antibody, V domains shown)
VH: QVKLEESGGGLVQAGGSLRLCCAASGRTIDNYAMAWSRQAPGKDREFVATIDWGDGGARYANSVKGRFTISRDNAKGTMCLQMNNLEPEDTAVYSCAMARQSRVNLDVARYDYWGQGTQVTVSS
B4: IGF1R4_22_88 (antibody, V domains shown)
VH: QVKLEESGGGLVQAGGSLRLCCEVSGGTVSPTAMGWFRQAPGKEREFVGHITWSRGTTRVASSVKDRFTISRDSAKNTVCLQMNSLKSEDTAVYYCAASTFLRILPEESAYTYWGQGTQVTVSS
B5: IGF1R4_6_119 (designed binder)
chain: QVKLECSGGGLVQAGGSLRLSCEVSGGTVSPTAMGWFRQAPGKEREFVGHITWSRGTTRVASSVKDRFTISRDSAKNTVYLQMNSLKSEDTAVYYCAASTFLRILPEESAYTYWCQGTQVTVSS
B6: IGF1R4 (antibody, V domains shown)
VH: QVKLEESGGGLVQAGGSLRLSCEVSGGTVSPTAMGWFRQAPGKEREFVGHITWSRGTTRVASSVKDRFTISRDSAKNTVYLQMNSLKSEDTAVYYCAASTFLRILPEESAYTYWGQGTQVTVSS
B7: IGF1R4_4_25 (antibody, V domains shown)
VH: QVKCEESGGGLVQAGGSLRLSCECSGGTVSPTAMGWFRQAPGKEREFVGHITWSRGTTRVASSVKDRFTISRDSAKNTVYLQMNSLKSEDTAVYYCAASTFLRILPEESAYTYWGQGTQVTVSS
B8: IGF1R4_24_86 (antibody, V domains shown)
VH: QVKLEESGGGLVQAGGSLRLSCCVSGGTVSPTAMGWFRQAPGKEREFVGHITWSRGTTRVASSVKDRFTISRDSAKNCVYLQMNSLKSEDTAVYYCAASTFLRILPEESAYTYWGQGTQVTVSS
B9: IGF1R3_6_119 (designed binder)
chain: QVKLECSGGGLVQAGGSLRLSCVASEYPSNFYAMSWFRQAPGKEREFVAGVSRDGLTTLYADSVKGRFTMSRDNAKNTVDLQMNSVKAEDTAVYYCAIVITGVWNKVDVNSRSYHYWCQGTQVTVSS
B10: IGF1R3_24_86 (antibody, V domains shown)
VH: QVKLEESGGGLVQAGGSLRLSCCASEYPSNFYAMSWFRQAPGKEREFVAGVSRDGLTTLYADSVKGRFTMSRDNAKNCVDLQMNSVKAEDTAVYYCAIVITGVWNKVDVNSRSYHYWGQGTQVTVSS
B11: IGF1R3_4_25 (antibody, V domains shown)
VH: QVKCEESGGGLVQAGGSLRLSCVCSEYPSNFYAMSWFRQAPGKEREFVAGVSRDGLTTLYADSVKGRFTMSRDNAKNTVDLQMNSVKAEDTAVYYCAIVITGVWNKVDVNSRSYHYWGQGTQVTVSS
B12: IGF1R3 (antibody, V domains shown)
VH: QVKLEESGGGLVQAGGSLRLSCVASEYPSNFYAMSWFRQAPGKEREFVAGVSRDGLTTLYADSVKGRFTMSRDNAKNTVDLQMNSVKAEDTAVYYCAIVITGVWNKVDVNSRSYHYWGQGTQVTVSS
B13: IGF1R3_22_88 (antibody, V domains shown)
VH: QVKLEESGGGLVQAGGSLRLCCVASEYPSNFYAMSWFRQAPGKEREFVAGVSRDGLTTLYADSVKGRFTMSRDNAKNTVCLQMNSVKAEDTAVYYCAIVITGVWNKVDVNSRSYHYWGQGTQVTVSS
B14: EG2 (antibody, V domains shown)
VH: QVQLVESGGGLVQAGDSLRVSCAASGRDFSDYVMGWFRQAPGKEREFVAAISRNGLTTRYADSVKGRFTISRDNDKNMVYLQMNSLKPEDTAVYYCAVNSAGTYVSPRSREYDYWGQGTQVTVSS
B15: EG2_6_119 (designed binder)
chain: QVQLVCSGGGLVQAGDSLRVSCAASGRDFSDYVMGWFRQAPGKEREFVAAISRNGLTTRYADSVKGRFTISRDNDKNMVYLQMNSLKPEDTAVYYCAVNSAGTYVSPRSREYDYWCQGTQVTVSS
B16: EG2_22_88 (antibody, V domains shown)
VH: QVQLVESGGGLVQAGDSLRVCCAASGRDFSDYVMGWFRQAPGKEREFVAAISRNGLTTRYADSVKGRFTISRDNDKNMVCLQMNSLKPEDTAVYYCAVNSAGTYVSPRSREYDYWGQGTQVTVSS
B17: EG2_24_86 (antibody, V domains shown)
VH: QVQLVESGGGLVQAGDSLRVSCCASGRDFSDYVMGWFRQAPGKEREFVAAISRNGLTTRYADSVKGRFTISRDNDKNCVYLQMNSLKPEDTAVYYCAVNSAGTYVSPRSREYDYWGQGTQVTVSS
B18: EG2_4_25 (antibody, V domains shown)
VH: QVQCVESGGGLVQAGDSLRVSCACSGRDFSDYVMGWFRQAPGKEREFVAAISRNGLTTRYADSVKGRFTISRDNDKNMVYLQMNSLKPEDTAVYYCAVNSAGTYVSPRSREYDYWGQGTQVTVSS

IGF1R, sequence (P08069 31-932): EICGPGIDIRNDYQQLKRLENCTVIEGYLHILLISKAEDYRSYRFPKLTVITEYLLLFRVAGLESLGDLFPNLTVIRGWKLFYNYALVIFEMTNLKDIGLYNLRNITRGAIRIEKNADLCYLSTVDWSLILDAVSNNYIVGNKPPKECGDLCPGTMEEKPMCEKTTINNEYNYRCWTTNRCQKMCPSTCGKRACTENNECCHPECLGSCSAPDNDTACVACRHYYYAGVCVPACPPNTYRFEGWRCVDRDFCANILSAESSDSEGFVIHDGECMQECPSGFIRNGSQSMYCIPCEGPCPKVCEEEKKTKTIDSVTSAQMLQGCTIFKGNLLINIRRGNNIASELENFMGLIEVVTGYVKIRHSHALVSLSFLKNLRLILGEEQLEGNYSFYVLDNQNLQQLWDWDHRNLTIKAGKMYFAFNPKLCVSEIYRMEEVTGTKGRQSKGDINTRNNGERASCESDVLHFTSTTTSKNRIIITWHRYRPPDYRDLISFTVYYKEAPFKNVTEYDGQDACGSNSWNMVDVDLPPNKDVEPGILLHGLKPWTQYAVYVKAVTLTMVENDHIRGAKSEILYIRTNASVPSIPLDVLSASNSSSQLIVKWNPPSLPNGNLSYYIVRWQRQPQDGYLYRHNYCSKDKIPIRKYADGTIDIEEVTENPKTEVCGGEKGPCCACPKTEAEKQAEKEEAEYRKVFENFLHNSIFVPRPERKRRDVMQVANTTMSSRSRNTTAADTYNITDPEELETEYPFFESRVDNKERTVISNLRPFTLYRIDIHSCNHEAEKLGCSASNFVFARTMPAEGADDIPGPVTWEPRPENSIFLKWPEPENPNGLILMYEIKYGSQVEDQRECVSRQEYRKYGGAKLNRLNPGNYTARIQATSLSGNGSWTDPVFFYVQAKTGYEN

One experiment has as its target IGF1R (human, UniProt P08069). Put plainly: SPR.
Molecule B1 yielded a dissociation constant Kd of 0.8 nM. That is a sub-nanomolar value.

Molecule B2 gave a dissociation constant (Kd) of 1.1 nM.

Consider B3, for which the affinity, expressed as Kd, was 1.4 nM. The Kd values of the last two molecules are within 1.5-fold of each other.

The molecule B4 showed a Kd of 0.5 nM.

B5: binding was characterised by a dissociation constant (Kd) of 0.3 nM.

Regarding B6, the affinity, expressed as Kd, was 0.3 nM.

As for B7, the Kd came to 0.5 nM.

On to B8, for which the Kd came to 1.1 nM.

B9 yielded a dissociation constant Kd of 1.4 nM.

Molecule B10 returned a Kd of 5.3 nM. This Kd is about 3.8-fold higher than that of the molecule before.

As for B11, binding was characterised by a dissociation constant (Kd) of 2.3 nM.

As to B12, the Kd stood at 0.9 nM.

Consider B13, for which the Kd stood at 0.8 nM.

The target in a further experiment is EGFR (human, UniProt P00533). Put plainly: SPR.
In turn, B14 showed a dissociation constant Kd of 14.6 nM.

Take B15: binding was characterised by a dissociation constant (Kd) of 25.7 nM.

In the case of B16, the affinity, expressed as Kd, was 47.2 nM.

Turning to B17, the dissociation constant (Kd) turned out to be 62.5 nM.

On to B18, for which the Kd stood at 10.6 nM.
